According to IntAct's records for PubMed 26167883:

Molecular target: mcm2_human MCM2 (UniProt P49736)

Question: With “Histone H3.1 (Homo sapiens) (from UniProt P68431) R64A;K65A” as the substance, how does the “effect of a mutation on the interaction” value read?
Answer: The value was “decreasing interaction strength”.
